Experimental findings from patent US20260209350A1 are described below.

Changes are numbered by the printed parent chain.

In assay [1] the target is T1, recombinant human TREM2-DAP12 fusion protein on cells (human) (UniProt Q9NZC2).
T1 sequence: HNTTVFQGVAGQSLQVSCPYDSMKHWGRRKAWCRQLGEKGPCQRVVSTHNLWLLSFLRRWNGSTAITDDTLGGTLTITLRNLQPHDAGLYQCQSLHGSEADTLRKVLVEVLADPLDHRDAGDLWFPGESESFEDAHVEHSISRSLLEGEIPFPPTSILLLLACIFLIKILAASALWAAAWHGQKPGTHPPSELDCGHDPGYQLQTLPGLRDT
Description: FACS, hTrem2 cells. Background: A flow cytometer gives signals particle by particle.

The target in assay [2] is T1, recombinant human TREM2-DAP12 fusion protein on cells (human). Description: FACS, 293 cells.

B1: Ab52 (antibody, human IgG1, V domains shown)
VH: QVQLVQSGAEVKKPGASVKVSCKASGYTFTSYYIHWVRQAPGQGLEWMGIINPSGGSTSYAQKFQGRVTMTRDTSTSTVYMELSSLRSEDTAVYYCAREADDSSGYPLGLDVWGQGTMVTVSS
VL: EIVMTQSPATLSVSPGERATLSCRASQSVSSNLAWYQQKPGQAPRLLIYGASTRATGIPARFSGSGSGTEFTLTISSLQSEDFAVYYCQQVNSLPPTFGGGTKVEIK
With B1, the MFI in assay [1] and in assay [2] was 1410 MFI throughout.

B2: Ab73 (antibody, human IgG1, V domains shown)
VH: EVQLVQSGAEVKKPGESLKISCKGSGYSFTSYWIGWVRQMPGKGLEWMGIIYPGDSDTTYSPSFQGQVTISADKSISTAYLQWSSLKASDTAMYYCARAKMLDDGYAFDIWGQGTMVTVSS
VL: B1 VL with V91D, N92D, S93N, L94Y, P96Y
Take B2: the MFI in assay [1] stood at 1310 MFI.

B3: Ab15 (antibody, human IgG1, V domains shown)
VH: QVQLQESGPGLVKPSQTLSLTCTVSGGSISSGGYYWSWIRQHPGKGLEWIGNIYYSGSTVYNPSLKSRVTISVDTSKNQFSLKLSSVTAADTAVYYCARGLYGYGVLDVWGQGTMVTVSS
VL: DIQMTQSPSSLSASVGDRVTITCQASQDISNYLNWYQQKPGKAPKLLIYDASNLETGVPSRFSGSGSGTDFTFTISSLQPEDIATYYCQQFDTYPTFGGGTKVEIK
For the molecule B3, in assay [1], the MFI came out at 1610 MFI.

B4: Ab72 (antibody, human IgG1, V domains shown)
VH: QVQLQESGPGLVKPSETLSLTCTVSGGSISSYYWSWIRQPPGKGLEWIGSIYYSGSTNYNPSLKSRVTISVDTSKNQFSLKLSSVTAADTAVYYCARSGTETLFDYWGQGTLVTVSS
VL: DIQMTQSPSSLSASVGDRVTITCQASQDITNYLNWYQQKPGKAPKLLIYDASNLETGVPSRFSGSRSGTDFTFTISSLQPEDIATYYCQQDVNYPPTFGGGTKVEIK
As for B4, the MFI in assay [1] amounted to 1500 MFI.

B5: Ab51 (antibody, human IgG1, V domains shown)
VH: QVQLVQSGAEVKKPGASVKVSCKASGYTFTSYYMHWVRQAPGQGLEWMGIINPSGGSTSYAQKFQGRVTMTRDTSTSTVYMELSSLRSEDTAVYYCARGVGGQDYYYMDVWGKGTTVTVSS
VL: DIQMTQSPSSLSASVGDRVTITCRASQSISSYLNWYQQKPGKAPKLLIYAASSLQSGVPSRFSGSGSGTDFTLTISSLQPEDFATYYCQQFDDVFTFGGGTKVEIK
In the case of B5, the MFI in assay [1] was 1930 MFI.

B6: Ab64 (antibody, human IgG1, V domains shown)
VH: EVQLVQSGAEVKKPGESLKISCKGSGYSFTSYWIGWVRQMPGKGLEWMGIIYPGDSDTRYSPSFQGQVTISADKSISTAYLQWSSLKASDTAMYYCARLGRWSSGSTAFDIWGQGTMVTVSS
VL: EIVMTQSPATLSVSPGERATLSCRASQSVSSNLAWYQQKPGQAPRLLIYGASTRATGIPARFSGSGSGTEFTLTISSLQSEDFAVYYCQQDDDGYTFGGGTKVEIK
On to B6, for which, in assay [1], the MFI came to 1460 MFI.

B7: Ab45 (antibody, human IgG1, V domains shown)
VH: QVQLVQSGAEVKKPGASVKVSCKASGYTFTSYYMHWVRQAPGQGLEWMGIINPSGGSTSYAQKFQGRVTMTRDTSTSTVYMELSSLRSEDTAVYYCARGPGYTTALDYYYMDVWGKGTTVTVSS
VL: B6 VL with D91L, G94W, Y95F
In the case of B7, in assay [2], the MFI worked out at 2060 MFI.

B8: Ab12 (antibody, human IgG1, V domains shown)
VH: EVQLVQSGAEVKKPGESLKISCKGSGYSFTSYWIGWVRQMPGKGLEWMGIIYPGDSDTRYSPSFQGQVTISADKSISTAYLQWSSLKASDTAMYYCARLGHYSGTVSSYGMDVWGQGTTVTVSS
VL: DIQMTQSPSSLSASVGDRVTITCRASQSISSYLNWYQQKPGKAPKLLIYAASSLQSGVPSRFSGSGSGTDFTLTISSLQPEDFATYYCQQEYAVPYTFGGGTKVEIK
Regarding B8, the MFI in assay [1] is 1930 MFI.

B9: Ab63 (antibody, human IgG1, V domains shown)
VH: QVQLVQSGAEVKKPGASVKVSCKASGYTFTSYGISWVRQAPGQGLEWMGWISTYNGNTNYAQKLQGRVTMTTDTSTSTAYMELRSLRSDDTAVYYCARGSGSGYDSWYDWGQGTLVTVSS
VL: B8 VL with L11V, S28G, S30D, Y32W, N34A, E91A, A93S, V94L, Y96P
As to B9, the MFI in assay [1] is 1350 MFI.

B10: Ab83 (antibody, human IgG1, V domains shown)
VH: QVQLQQWGAGLLKPSETLSLTCAVYGGSFSGYYWSWIRQPPGKGLEWIGEIDHSGSTKYNPSLKSRVTISVDTSKNQFSLKLSSVTAADTAVYYCARVGVVVGRPGYSAFDIWGQGTMVTVSS
VL: B8 VL with L11V, S28G, Y32W, N34A, E91R, Y92N, A93S, V94L, Y96L
For the molecule B10, the MFI in assay [1] was found to be 684 MFI.

B11: Ab54 (antibody, human IgG1, V domains shown)
VH: B7 VH
VL: B8 VL with S30N, E91S, Y92D, A93D, V94D, Y96F
Take B11: the MFI in assay [1] turned out to be 1930 MFI.

B12: Ab82 (antibody, human IgG1, V domains shown)
VH: QVQLQESGPGLVKPSQTLSLTCTVSGGSISSGGYYWSWIRQHPGKGLEWIGYIYYSGSTVYNPSLKSRVTISVDTSKNQFSLKLSSVTAADTAVYYCARVSSSWYKAWGQGTMVTVSS
VL: B8 VL with L11V, S28G, Y32W, N34A, E91A, Y92S, A93T, V94F, Y96I
In the case of B12, the MFI in assay [1] is 371 MFI.

B13: Ab8 (antibody, human IgG1, V domains shown)
VH: QLQLQESGPGLVKPSETLSLTCTVSGGSISSSSYYWGWIRQPPGKGLEWIGSISYSGSTYYNPSLKSRVTISVDTSKNQFSLKLSSVTAADTAVYYCARGPYRLLLGMDVWGQGTTVTVSS
VL: B8 VL with A50G, E91I, Y92D, A93D, V94T, Y96I
B13: the MFI in assay [1] was 1620 MFI.
